Experimental findings from doi:10.1101/2024.09.21.614250 (bioRxiv, 2024) are described below.

Assay [1] addresses T1, Shp2^tSH2 (aa5-218), C-terminally SNAP-tag-fused, SC505-labeled (human, UniProt Q06124 5-218, Snap-Cell505 star (SC505) label on the SNAP-tag).
T1 sequence: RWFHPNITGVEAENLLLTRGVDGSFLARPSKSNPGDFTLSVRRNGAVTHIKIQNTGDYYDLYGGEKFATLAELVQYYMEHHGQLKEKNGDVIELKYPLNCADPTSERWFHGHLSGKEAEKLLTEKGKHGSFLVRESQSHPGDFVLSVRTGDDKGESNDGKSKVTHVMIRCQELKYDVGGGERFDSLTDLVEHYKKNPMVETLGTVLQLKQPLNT
As to the kind of experiment: FRET or BRET.

The target in assay [2] is T2, Shp1^tSH2 (aa4-215), C-terminally SNAP-tag-fused, SC505-labeled (human, UniProt P29350 4-215, Snap-Cell505 star (SC505) label on the SNAP-tag).
T2 sequence: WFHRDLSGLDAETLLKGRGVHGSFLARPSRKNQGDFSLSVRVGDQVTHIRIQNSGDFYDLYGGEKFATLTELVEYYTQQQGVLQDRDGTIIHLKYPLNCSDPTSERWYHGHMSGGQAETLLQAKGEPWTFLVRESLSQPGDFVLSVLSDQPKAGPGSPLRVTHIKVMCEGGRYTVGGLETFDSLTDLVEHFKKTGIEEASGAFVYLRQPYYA
As to the kind of experiment: FRET or BRET.

B1: His-tagged moPD1 ICD WT, phosphorylated by Lck (domain or fragment)
chain: CSTSMSEARGAGSKDDTLKEEPSAAPVPSVAYEELDFQGREKTPELPTACVHTEYATIVFTEGLGASAMGRRGSADGLQGPRPPRHEDGHCSWPL
modifications: phosphorylated by Lck on the LUV after ATP addition (sites not stated for this assay)
For B1, binding in assay [1] was put at a Kd of 220 nM. In addition, the binding result in assay [2] is reported as “binds”.

B2: His-tagged huPD1 ICD WT, phosphorylated by Lck (domain or fragment)
chain: CSRAARGTIGARRTGQPLKEDPSAVPVFSVDYGELDFQWREKTPEPPVPCVPEQTEYATIVFPSGMGTSSPARRGSADGPRSAQPLRPEDGHCSWPL
modifications: phosphorylated by Lck on the LUV after ATP addition (sites not stated for this assay)
Regarding B2, in assay [1], the Kd is 76 nM. Also, the binding result in assay [2] was “binds”.
